{"source": "IntAct's records for PubMed 29892012", "parents": {"B1": {"name": "Mothers against decapentaplegic homolog 4 (Homo sapiens), Q13485 (parent)", "chain": "MDNMSITNTPTSNDACLSIVHSLMCHRQGGESETFAKRAIESLVKKLKEKKDELDSLITAITTNGAHPSKCVTIQRTLDGRLQVAGRKGFPHVIYARLWRWPDLHKNELKHVKYCQYAFDLKCDSVCVNPYHYERVVSPGIDLSGLTLQSNAPSSMMVKDEYVHDFEGQPSLSTEGHSIQTIQHPPSNRASTETYSTPALLAPSESNATSTANFPNIPVASTSQPASILGGSHSEGLLQIASGPQPGQQQNGFTGQPATYHHNSTTTWTGSRTAPYTPNLPHHQNGHLQHHPPMPPHPGHYWPVHNELAFQPPISNHPAPEYWCSIAYFEMDVQVGETFKVPSSCPIVTVDGYVDPSGGDRFCLGQLSNVHRTEAIERARLHIGKGVQLECKGEGDVWVRCLSDHAVFVQSYYLDREAGRAPGDAVHKIYPSAYIKVFDLRQCHRQMQQQAATAQAAAAAQAAAVAGNIPGPGSVGGIAPAISLSAAAGIGVDDLRRLCILRMSFVKGWGPDYPRQSIKETPCWIEIHLHRALQLLDEVLHTMPIADPQPLD"}, "B2": {"name": "CLK4-associating serine/arginine rich protein (Homo sapiens), Q8N2M8 (parent)", "chain": "MWHEARKHERKLRGMMVDYKKRAERRREYYEKIKKDPAQFLQVHGRACKVHLDSAVALAAESPVNMMPWQGDTNNMIDRFDVRAHLDHIPDYTPPLLTTISPEQESDERKCNYERYRGLVQNDFAGISEEQCLYQIYIDELYGGLQRPSEDEKKKLAEKKASIGYTYEDSTVAEVEKAAEKPEEEESAAEEESNSDEDEVIPDIDVEVDVDELNQEQVADLNKQATTYGMADGDFVRMLRKDKEEAEAIKHAKALEEEKAMYSGRRSRRQRREFREKRLRGRKISPPSYARRDSPTYDPYKRSPSESSSESRSRSRSPTPGREEKITFITSFGGSDEEAAAAAAAAAASGVTTGKPPAPPQPGGPAPGRNASARRRSSSSSSSSSASRTSSSRSSSRSSSRSRRGGGYYRSGRHARSRSRSWSRSRSRSRRYSRSRSRGRRHSGGGSRDGHRYSRSPARRGGYGPRRRSRSRSHSGDRYRRGGRGLRHHSSSRSRSSWSLSPSRSRSLTRSRSHSPSPSQSRSRSRSRSQSPSPSPAREKLTRPAASPAVGEKLKKTEPAAGKETGAAKPKLTPQEKLKLRMQKALNRQFKADKKAAQEKMIQQEHERQEREDELRAMARKIRMKERERREKEREEWERQYSRQSRSPSPRYSREYSSSRRRSRSRSRSPHYRH", "partner": "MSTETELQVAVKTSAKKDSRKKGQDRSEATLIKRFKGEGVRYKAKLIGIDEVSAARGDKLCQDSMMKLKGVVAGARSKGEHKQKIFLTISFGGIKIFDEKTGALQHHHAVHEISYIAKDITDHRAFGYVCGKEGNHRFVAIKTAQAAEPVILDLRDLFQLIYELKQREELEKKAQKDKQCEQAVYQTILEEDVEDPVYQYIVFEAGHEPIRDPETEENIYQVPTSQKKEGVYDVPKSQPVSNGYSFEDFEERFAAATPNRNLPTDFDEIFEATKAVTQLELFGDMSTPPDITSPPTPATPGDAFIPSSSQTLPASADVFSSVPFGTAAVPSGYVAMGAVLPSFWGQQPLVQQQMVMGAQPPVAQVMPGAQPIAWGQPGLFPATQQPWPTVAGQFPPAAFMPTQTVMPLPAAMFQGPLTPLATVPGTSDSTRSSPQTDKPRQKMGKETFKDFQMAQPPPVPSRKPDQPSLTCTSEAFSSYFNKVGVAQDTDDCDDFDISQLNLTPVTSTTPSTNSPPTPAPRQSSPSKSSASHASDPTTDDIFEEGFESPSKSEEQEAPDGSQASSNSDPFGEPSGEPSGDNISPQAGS"}, "B3": {"name": "Keratin, type I cuticular Ha8 (Homo sapiens), O76015 (parent)", "chain": "MTSSYSSSSCPLGCTMAPGARNVSVSPIDIGCQPGAEANIAPMCLLANVAHANRVRVGSTPLGRPSLCLPPTCHTACPLPGTCHIPGNIGICGAYGENTLNGHEKETMQFLNDRLANYLEKVRQLEQENAELEATLLERSKCHESTVCPDYQSYFHTIEELQQKILCSKAENARLIVQIDNAKLAADDFRIKLESERSLRQLVEADKCGTQKLLDDATLAKADLEAQQESLKEEQLSLKSNHEQEVKILRSQLGEKLRIELDIEPTIDLNRVLGEMRAQYEAMLETNRQDVEQWFQAQSEGISLQDMSCSEELQCCQSEILELRCTVNALEVERQAQHTLKDCLQNSLCEAEDRFGTELAQMQSLISNVEEQLSEIRADLERQNQEYQVLLDVKTRLENEIATYRNLLESEDCKLPCNPCSTSPSCVTAPCAPRPSCGPCTTCGPTCGASTTGSRF", "partner": "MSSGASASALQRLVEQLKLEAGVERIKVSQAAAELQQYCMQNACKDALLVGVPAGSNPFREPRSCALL"}}, "data": [{"variants_of": "B1", "conditions": "with ews_human EWSR1, Q01844", "values": [{"variant": "I500V", "effect of a mutation on the interaction": "disrupting interaction strength"}]}, {"variants_of": "B1", "conditions": "with smad3_human SMAD3, P84022", "values": [{"variant": "I500V", "effect of a mutation on the interaction": "with no effect"}]}, {"variants_of": "B2", "conditions": "with dab1_human DAB1, O75553", "values": [{"variant": "I163V", "effect of a mutation on the interaction": "with no effect"}]}, {"variants_of": "B3", "conditions": "with gbg10_human GNG10, P50151", "values": [{"variant": "N270K", "effect of a mutation on the interaction": "with no effect"}]}, {"variants_of": "B3", "conditions": "with gbg10_human GNG10, P50151", "remark": "another data set of the same source", "values": [{"variant": "D306A", "effect of a mutation on the interaction": "with no effect"}]}]}
